± gives the uncertainty stated by the source.

The data set in a line: amyloid nucleation score (Sup35N fusion, yeast selection) (log enrichment); library NNK3; higher = more nucleation; inactive = no reads after selection. An outline of the steps:
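Three technical output replicates were used for random libraries. Psi-negative yeast expressing peptides of 20 random codons fused to Sup35N were induced with 100 μM copper sulfate for 24 hours and grown 7 days at 30°C on medium lacking adenine and uracil, and input and output plasmid inserts were Illumina-sequenced, excluding sequences with under 100 input reads. The nucleation score is the DiMSum log enrichment of output over input reads, centred on the mode score of non-aggregating sequences.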
TQRVGERGIIMYHPWIGYYV returned an amyloid nucleation score of 0.189 ± 0.26.

For the substance HSLDRKYSWRI, the amyloid nucleation score entry was “inactive”. As to SSIHH, the amyloid nucleation score result was “inactive”. Turning to GFRRRSMDALSVTVDSVVAP, the amyloid nucleation score entry is “inactive”. Next, IILRFDGFTMSSPRNLVIDG: “inactive”; YRDCISEGLKLSNWNELLGK: “inactive”.

Consider NLLDYTVIVNSLSFVDSKSS, for which the amyloid nucleation score entry was “inactive”. Regarding SQWWNVDPRSTQCASGAMRC, the amyloid nucleation score result was “inactive”. Turning to YWLDLYSKCLSSSVEISLGI, the amyloid nucleation score entry is “inactive”. For the substance TWLSFIRLNMMPINTSTCYP, the amyloid nucleation score result is “inactive”. On to VFFMNYGHVIVHFEKFFGGN, for which the amyloid nucleation score is 2.6 ± 0.082. For the substance SLNCDGSSDGRCAAYQIWLC, the amyloid nucleation score result was “inactive”. Next, SRFRFMGNVRQFLQPYRRLH: 0.347 ± 0.2; YFINSFCVAVWIICHQGVCA: “inactive”; LYVHFSILCTFGWSVPNQEG: “inactive”. As to FTPDVRWLNVLNSHNGVIEV, the amyloid nucleation score result was “inactive”. In the case of RQGGVNRNSVSMHSHGYRDC, the amyloid nucleation score result was “inactive”.

With LFCRVWSFGVLMCFE, the amyloid nucleation score result was “inactive”. Regarding PVSII, the amyloid nucleation score entry was “inactive”. Take LFLFESQTCDSRVQNCISFG: the amyloid nucleation score entry was “inactive”.

With YPLFECSDAPSQDNDTMLTR, the amyloid nucleation score result is “inactive”. As for GSYLQGMRCVADWDNGEQLR, the figure is 1.97 ± 0.091. Consider LIFPWDLRKGAHHPGLRSCI, for which the amyloid nucleation score entry was “inactive”. As for RTVDSH, the entry is “inactive”. As for FVYWNLSAYVRILVVDGNGR, the amyloid nucleation score result is “inactive”.

In the case of SELETQDIYMRSQPFTEFSP, the amyloid nucleation score result was “inactive”.

Turning to FWGFAFPFTSHGGPKNLEES, the amyloid nucleation score result is “inactive”. As for VFFRYWV, the figure is 1.62 ± 0.073. ILLALN gave an amyloid nucleation score of 0.03 ± 0.88. With MRNCEIISWKKAQVLSYNSS, the amyloid nucleation score entry was “inactive”. On to FKVNLDVP, for which the amyloid nucleation score is -0.263 ± 1.4. Substance VHYKVKGSLPFCCGYFNSLW came in with an amyloid nucleation score of 1.67 ± 0.079. In the case of YWYIIYAMSGLWYSSVNRVD, the amyloid nucleation score entry was “inactive”. As for IKCDLRSSVAWDLSVILYSF, the entry is “inactive”; as for LFVIHAGMNSTSFFKNMMSC, “inactive”. As for TMHYFQNTAIDRYEMTAP, the entry is “inactive”; as for DFWRTIEGKMSLALI, “inactive”.

As to SHVLWDGTWEVGGGGHKA, the amyloid nucleation score result was “inactive”. As for SKLHAE, the entry is “inactive”.

Take LLWEWYFI: the amyloid nucleation score entry was “inactive”. Next, TSSAHNTRSCLMM: “inactive”. As for VVMMFVVIYIYALRRPY, the figure is 0.143 ± 0.25; as for VYIFLNEEPRVN, “inactive”.

Consider HPYSNVWMSL, for which the amyloid nucleation score result is “inactive”.

Regarding QIQGMNSQKRLRLKKP, the amyloid nucleation score entry was “inactive”. As for LVADSDRMNVTLRFTVSYCS, the entry is “inactive”; as for AMVKEFWVDSRHFIDRYSKC, “inactive”; as for EGRDQDNIPLMNTTGMCFGA, “inactive”. For the substance INTGMASGSSGTYVSAGIEA, the amyloid nucleation score entry was “inactive”. Next, AKFSGVLKAYAVREATYCLG: “inactive”. As for HIVPAVCT, the entry is “inactive”.

Take VRLYADNNLSAITKLLCPKN: the amyloid nucleation score entry is “inactive”. On to PKCSIGKSLLVGRLMDVRAV, for which the amyloid nucleation score result is “inactive”.
